Results: paper PMC2829074
Ends that are not written are not given here.

Legend:
[1] = target: denatured multimeric human vitronectin (VTNC) (human)
[2] = target: somatomedin B domain (SMTB 1–44) of vitronectin (human); experiment: SPR; kinetics, Biacore T100: monomeric (667.4 RU) or multimeric (625.2 RU) VTNC or SMTB 1–44 (337.2 RU) immobilized on CM5 by amine coupling; analyte injected 90 s at 30 µl/minute, 25°C, HBS-P (10 mM Hepes pH 7.4, 150 mM NaCl, 0.005% P20); Cyr61 fitted by the global two-state (conformational change) model, PAI-1 by the Langmuir 1:1 model
[3] = target: somatomedin B domain (SMTB 1–44) of vitronectin (human); experiment: ELISA; competition: SMTB 1–44 (1.25 µg/well) immobilized; Cyr61 (30 nM) mixed with stable mutant PAI-1 (0, 50, 500 nM) or ixolaris (500 nM) in PBS-T, added for 90 minutes; bound Cyr61 detected with anti-Cyr61 antibody
Cyr61/CCN1 = Cyr61/CCN1 (UniProt O00622); experiment: ELISA; competitive ELISA: wells coated with multimeric VTNC (25 ng/well); Cyr61 (30 nM) co-incubated for 90 minutes with increasing concentrations of soluble VTNC forms, SMTB 1–44 or ixolaris; VTNC-bound Cyr61 detected with anti-Cyr61 antibody
[4] = target: PAI-1 (recombinant stable mutant form) (UniProt P05121); experiment: ITC; VP-ITC, 30°C, 5 µL injections of 10 µM SMTB 1–44 into 1 µM PAI-1 or Cyr61 in the cell; 20 mM Tris-HCl, 0.15 M NaCl, pH 7.4; single-site model
[5] = target: denatured multimeric human vitronectin (VTNC) (human); experiment: ELISA; solid-phase binding assay: VTNC (25 ng/well) or SMTB 1–44 (2.5 µg/well) immobilized on plates, Cyr61 0–1 µM in PBS-0.4% Tween 20 for 90 minutes, detected with anti-Cyr61 monoclonal antibody; apparent KD by Langmuir isotherm
[6] = target: native monomeric human vitronectin (VTNC) (human); experiment: as above
[7] = target: denatured multimeric human vitronectin (VTNC) (human); experiment: ELISA; solid-phase binding assay as a3 on multimeric VTNC, in TBS 0.4% Tween supplemented with 0.5% gelatin; apparent KD
[8] = target: denatured multimeric human vitronectin (VTNC) (human); experiment: SPR; kinetics, Biacore T100: monomeric (667.4 RU) or multimeric (625.2 RU) VTNC or SMTB 1–44 (337.2 RU) immobilized on CM5 by amine coupling; analyte injected 90 s at 30 µl/minute, 25°C, HBS-P (10 mM Hepes pH 7.4, 150 mM NaCl, 0.005% P20); Cyr61 fitted by the global two-state (conformational change) model, PAI-1 by the Langmuir 1:1 model
[9] = target: native monomeric human vitronectin (VTNC) (human); experiment: as above
[10] = target: somatomedin B domain (SMTB 1–44) of vitronectin (human); experiment: ELISA; solid-phase binding assay: VTNC (25 ng/well) or SMTB 1–44 (2.5 µg/well) immobilized on plates, Cyr61 0–1 µM in PBS-0.4% Tween 20 for 90 minutes, detected with anti-Cyr61 monoclonal antibody; apparent KD by Langmuir isotherm

Molecule: PAI-1 (recombinant stable mutant form) (from UniProt P05121 24-402) (natural protein)
- inhibition of adhesion of uPAR-bearing PMA-differentiated U937 cells to VTNC-coated wells pre-incubated with stable mutant PAI-1 (1.5 µM); pair blocked: uPAR with VTNC [1]: > 90%
- Kd [2]: 0.0433 nM
- koff [2]: 0.0001 s⁻¹
- kon [2]: 2.31e+06 M⁻¹ s⁻¹
- percent inhibition of Cyr61 binding to SMTB 1–44 at 500 nM PAI-1 [3]: > 80%

Molecule: denatured multimeric human vitronectin (VTNC) (natural protein)
- percent inhibition of Cyr61 binding to immobilized VTNC at 15 µg/ml (Cyr61/CCN1): > 50%

B1: somatomedin B domain (SMTB 1–44) of vitronectin (peptide)
peptide: DQESCKGRCTEGFNVDKKCQCDELCSYYQSCCTDYTAECKPQVT
modifications: disulfide (positions not given here); also: eight oxidized cysteines, pairing not given here
- Kd [4]: < 1 nM
- dH [4]: -24 kcal/mol
- stoichiometry N [4]: 0.77

B2: Cyr61/CCN1 (natural protein)
chain: TCPAACHCPLEAPKCAPGVGLVRDGCGCCKVCAKQLNEDCSKTQPCDHTKGLECNFGASSTALKGICRAQSEGRPCEYNSRIYQNGESFQPNCKHQCTCIDGAVGCIPLCPQELSLPNLGCPNPRLVKVTGQCCEEWVCDEDSIKDPMEDQDGLLGKELGFDASEVELTRNNELIAVGKGSSLKRLPVFGMEPRILYNPLQGQKCIVQTTSWSQCSKTCGTGISTRVTNDNPECRLVKETRICEVRPCGQPVYSSLKKGKKCSKTKKSPEPVRFTYAGCLSVKKYRPKYCGSCVDGRCCTPQLTRTVKMRFRCEDGETFSKNVMMIQSCKCNYNCPHANEAAFPFYRLFNDIHKFRD
- Kd [5]: 22.6 nM
- Kd [6]: 26.5 nM
- Kd [7]: 36.5 nM
- inhibition of adhesion of uPAR-bearing PMA-differentiated U937 cells to VTNC-coated wells pre-incubated with Cyr61 (1.5 µM); pair blocked: uPAR with VTNC [1]: 40%
- Kd [8]: 27.6 nM
- ka1 (two-state model, step 1) [8]: 104000 M⁻¹ s⁻¹
- ka2 (two-state model, step 2) [8]: 0.00255 s⁻¹
- kd1 (two-state model, step 1) [8]: 0.0695 s⁻¹
- kd2 (two-state model, step 2) [8]: 0.00011 s⁻¹
- Kd [2]: 10.1 nM
- ka1 (two-state model, step 1) [2]: 127000 M⁻¹ s⁻¹
- ka2 (two-state model, step 2) [2]: 0.0109 s⁻¹
- kd1 (two-state model, step 1) [2]: 0.025 s⁻¹
- kd2 (two-state model, step 2) [2]: 0.000592 s⁻¹
- Kd [9]: 5.66 nM
- ka1 (two-state model, step 1) [9]: 568000 M⁻¹ s⁻¹
- ka2 (two-state model, step 2) [9]: 0.00783 s⁻¹
- kd1 (two-state model, step 1) [9]: 0.0245 s⁻¹
- kd2 (two-state model, step 2) [9]: 0.00118 s⁻¹
- Kd [10]: 27.2 nM
